Test results from article PMC5385945 (Molecular Biology of the Cell, 2017).

Molecular target: T1, Qc-SNARE Vam7 (wild type, naturally soluble) (S. cerevisiae, UniProt P32912 1-316)
T1 sequence (looked up): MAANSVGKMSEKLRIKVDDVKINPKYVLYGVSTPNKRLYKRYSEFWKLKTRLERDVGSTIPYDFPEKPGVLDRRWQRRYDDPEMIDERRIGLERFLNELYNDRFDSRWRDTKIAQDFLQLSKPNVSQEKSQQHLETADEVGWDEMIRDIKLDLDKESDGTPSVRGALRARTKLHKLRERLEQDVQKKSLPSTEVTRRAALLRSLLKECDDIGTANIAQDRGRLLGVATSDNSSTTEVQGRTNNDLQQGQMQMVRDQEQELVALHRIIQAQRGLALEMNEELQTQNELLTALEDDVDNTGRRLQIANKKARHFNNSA
Assay: co-flotation with proteoliposomes

binding result: binds
B1: Rab GTPase Ypt7, GTP-loaded, bound to proteoliposomes (natural protein, S. cerevisiae, UniProt P32939 1-208, looked up)
chain: MSSRKKNILKVIILGDSGVGKTSLMHRYVNDKYSQQYKATIGADFLTKEVTVDGDKVATMQVWDTAGQERFQSLGVAFYRGADCCVLVYDVTNASSFENIKSWRDEFLVHANVNSPETFPFVILGNKIDAEESKKIVSEKSAQELAKSLGDIPLFLTSAKNAINVDTAFEEIARSALQQNQADTEAFEDDYNDAINIRLDGENNSCSC
